For assay [1], the target named is D3H44 light chain Q38R_Q124R_Q160K_T178R. Briefly: LCCA, SPR tag readout, L1:L2 DNA 1:3 normalized to 1:1; competitor m19.
Assay [2] addresses D3H44 light chain Q38E_Q124E_Q160E_T180E. Put plainly: LCCA, SPR tag readout, L1:L2 DNA 1:3 normalized to 1:1; competitor m26.
Assay [3] concerns the target D3H44 light chain Q38R_Q124R_Q160K_T178R. Put plainly: LCCA, SPR tag readout, L1:L2 DNA 1:9 normalized to 1:1; competitor m19.
The target in assay [4] is D3H44 light chain Q38E_Q124E_Q160E_T180E. Briefly: LCCA, SPR tag readout, L1:L2 DNA 1:9 normalized to 1:1; competitor m26.
Assay [5] has as its target D3H44 Fab heavy chain L124E_L143E_K145M, C-terminal ABD2-His6 tag. Put plainly: LCCA co-expression, SPR tag read-out; DNA 1:3 norm. to 1:1; competing light chain m7.
The target in assay [6] is D3H44 Fab heavy chain L124E_L143E_K145T, C-terminal ABD2-His6 tag. Described as above.
For assay [7], the target named is D3H44 Fab heavy chain L124R_Q179K, C-terminal ABD2-His6 tag. The description is as above.
In assay [8] the target is D3H44 Fab heavy chain L124E_L143D_K145T, C-terminal ABD2-His6 tag. Briefly: LCCA co-expression, SPR tag read-out; DNA 1:3 norm. to 1:1; competing light chain m8.
Assay [9] has as its target D3H44 Fab heavy chain L124E_L143E_K145M, C-terminal ABD2-His6 tag. The assay is described as above.
The target of assay [10] is D3H44 Fab heavy chain L124R_Q179K, C-terminal ABD2-His6 tag. Described as above.
The target in assay [11] is D3H44 Fab heavy chain L124E_L143D_K145M, C-terminal ABD2-His6 tag. Put plainly: LCCA (co-expression, SPR read-out of light chain tags), L1:L2 DNA 1:3 normalised to 1:1; competitor m9.
In assay [12] the target is D3H44 Fab heavy chain L124E_L143D_K145T, C-terminal ABD2-His6 tag. The assay is described as above.
Assay [13] deals with D3H44 Fab heavy chain L124R_Q179K, C-terminal ABD2-His6 tag. The description is as above.
Assay [14] addresses D3H44 Fab heavy chain L124E_L143D_K145M, C-terminal ABD2-His6 tag. Briefly: LCCA (co-expression, SPR read-out of light chain tags), L1:L2 DNA 1:3 normalised to 1:1; competitor m10.
Assay [15] has as its target D3H44 Fab heavy chain L124R_Q179K, C-terminal ABD2-His6 tag. The assay is described as above.
Assay [16] deals with D3H44 Fab heavy chain L124E_L143D_K145M, C-terminal ABD2-His6 tag. Put plainly: LCCA (co-expression, SPR read-out of light chain tags), L1:L2 DNA 1:3 normalised to 1:1; competitor m11.
Assay [17] has as its target D3H44 Fab heavy chain L124E_L143D_K145T, C-terminal ABD2-His6 tag. The assay is described as above.
In assay [18] the target is D3H44 Fab heavy chain L124R_Q179K, C-terminal ABD2-His6 tag. The assay is described as above.
Assay [19] concerns the target D3H44 Fab heavy chain L124E_L143E_K145M, C-terminal ABD2-His6 tag. Briefly: LCCA set 9266 (co-expression; SPR read-out of light-chain tags; L1:L2 DNA 1:3, normalized to 1:1); competing light chain m9.
Assay [20] has as its target D3H44 Fab heavy chain L124E_L143E_K145T, C-terminal ABD2-His6 tag. Briefly: LCCA set 9316 (co-expression; SPR read-out of light-chain tags; L1:L2 DNA 1:3, normalized to 1:1); competing light chain m9.
For assay [21], the target named is D3H44 Fab heavy chain L124R_Q179K, C-terminal ABD2-His6 tag. Put plainly: LCCA set 9388 (co-expression; SPR read-out of light-chain tags; L1:L2 DNA 1:3, normalized to 1:1); competing light chain m9.
Assay [22] deals with D3H44 Fab heavy chain L124E_L143E_K145M, C-terminal ABD2-His6 tag. Briefly: LCCA set 9259 (co-expression; SPR read-out of light-chain tags; L1:L2 DNA 1:3, normalized to 1:1); competing light chain m10.
Assay [23] deals with D3H44 Fab heavy chain L124E_L143E_K145T, C-terminal ABD2-His6 tag. Put plainly: LCCA set 9271 (co-expression; SPR read-out of light-chain tags; L1:L2 DNA 1:3, normalized to 1:1); competing light chain m12.
Assay [24] shares this target. Put plainly: LCCA set 9298 (co-expression; SPR read-out of light-chain tags; L1:L2 DNA 1:3, normalized to 1:1); competing light chain m10.
Assay [25] deals with D3H44 Fab heavy chain L124R_D146N_Q179K, C-terminal ABD2-His6 tag. Briefly: LCCA set 9350 (co-expression; SPR read-out of light-chain tags; L1:L2 DNA 1:3, normalized to 1:1); competing light chain m12.
The target of assay [26] is D3H44 Fab heavy chain L124R_Q179K, C-terminal ABD2-His6 tag. Briefly: LCCA set 9384 (co-expression; SPR read-out of light-chain tags; L1:L2 DNA 1:3, normalized to 1:1); competing light chain m10.
Assay [27] deals with D3H44 Fab heavy chain L124A_L143F_Q179K, ABD2-His6 tagged. Put plainly: LCCA, SPR of light chain tags; L1:L2 DNA 1:3 normalized to 1:1; competing light chain m13.
The target is the same in assay [28]. Briefly: LCCA, SPR of light chain tags; L1:L2 DNA 1:3 normalized to 1:1; competing light chain m14.
The target in assay [29] is D3H44 Fab heavy chain L124A_Q179K, ABD2-His6 tagged. The description is as above.
Assay [30] deals with D3H44 Fab heavy chain L124W_L143E_K145T_Q179E, ABD2-His6 tagged. The assay is described as above.
Assay [31] addresses D3H44 Fab heavy chain L124W_L143F_K145T_Q179E, ABD2-His6 tagged. Described as above.
Assay [32] deals with D3H44 Fab heavy chain L124A_L143F_Q179K, ABD2-His6 tagged. Put plainly: LCCA, SPR of light chain tags; L1:L2 DNA 1:9 normalized to 1:1; competing light chain m13.
For assay [33], the target named is D3H44 Fab heavy chain L124W_L143E_K145T_Q179E, ABD2-His6 tagged. Described as above.
Assay [34] has as its target D3H44 Fab heavy chain L124A_L143F_Q179K, ABD2-His6 tagged. Briefly: LCCA, SPR of light chain tags; L1:L2 DNA 1:3 normalized to 1:1; competing light chain m12.
Assay [35] has as its target D3H44 Fab heavy chain L124W_L143E_K145T_Q179E, ABD2-His6 tagged. Described as above.
Assay [36] shares this target. Briefly: LCCA, SPR of light chain tags; L1:L2 DNA 1:9 normalized to 1:1; competing light chain m12.
Assay [37] has as its target D3H44 Fab heavy chain L124W_L143F_K145T_Q179E, ABD2-His6 tagged. Briefly: LCCA, SPR of light chain tags; L1:L2 DNA 1:3 normalized to 1:1; competing light chain m12.
The target is the same in assay [38]. Briefly: LCCA, SPR of light chain tags; L1:L2 DNA 1:3 normalized to 1:1; competing light chain m15.
Assay [39] deals with tissue factor (TF) antigen (UniProt P13726). Put plainly: SPR (ProteOn XPR36), Fab captured on anti-penta His, TF injected, 1:1 model.
For assay [40] the target is unchanged. Briefly: SPR (ProteOn XPR36), Fab captured on anti-penta His, TF injected at 0.74-60 nM, 1:1 model; median.

One may read the Kd as the concentration at which binding is half-saturated. High values mean lower affinity, low ones higher affinity.

With “D3H44 Fab heavy chain Q39E_L143E_K145T_H172R_Q179E”, the H1L1:H1L2 normalized median ratio in assay [1] was determined as 97%; in [2] it was 3%; in [3], 95%; in assay [4], 5%. The same substance registered an H1L1:H1L2 normalized median scalar value ln(r1/f1) in assay [3] of 2.96.
For the substance “D3H44 light chain Q124E_V133G_S176D_T178E_T180E, N-terminal HA or FLAG tag”, the H1L1:H1L2 normalized median ratio (% (ratio normalized to 100)) in assay [5] was determined as 8; in assay [6], 5; in assay [8], 8; in assay [9], 5. Further, the H2L2:H2L1 normalized median ratio (% (ratio normalized to 100)) in [7] and in assay [10] was 92 throughout. The H1L1:H1L2 normalized median ratio was 8% in assay [11]; 8% in [12]; 9% in assay [14]; 10% in [16]; 11% in assay [17]. Besides, the H2L2:H2L1 normalized median ratio worked out at 92% in [13], 92% in assay [15] and 93% in [18]. For the same substance, the H1L1:H1L2 normalized median ratio (H1L2 part) in [19] was 16%; in assay [20], 12%; in [22] it was 16%; in [23], 5%; in [24] it was 12%. In addition, the H2L2:H2L1 normalized median ratio (H2L2 part) in assay [21] came out at 92%; in assay [25], 82%; in [26], 92%.
For the substance “D3H44 light chain Q124E_V133W_S176T_T178E_T180E, HA or FLAG tagged”, the figures for the H1L1:H1L2 normalized median ratio in [27], in assay [28] and in [29] were 95%, 97% and 97%, respectively. In addition, the H1L1:H1L2 normalized median scalar value ln(r1/f1) in assay [27] is 2.88; in assay [28] it was 3.61; in assay [29] it was 3.59; in assay [32], 2.69. The H2L2:H2L1 normalized median ratio is 22% in assay [30], 30% in assay [31] and 8% in [33].
As to “D3H44 light chain Q124K_V133A_S176T_T178R, HA or FLAG tagged”, in [34], the H1L1:H1L2 normalized median ratio was determined as 5%. In addition, the H2L2:H2L1 normalized median ratio in assay [35] came out at 89%; in [36] it was 92%.
On to “D3H44 light chain S131K_V133A_S176T_T178L, HA or FLAG tagged”, for which the H2L2:H2L1 normalized median ratio in assay [35] was found to be 78%; in [37], 70%; in assay [38], 69%.
For “wild-type D3H44 Fab heterodimer constructs (Fab constructs containing HA tag or FLAG tag)”, the fold difference between the maximum and minimum KD values in [39] is 2.6 fold. The substance further came in with a Kd in [40] of 0.15 nM.

For the origin of these results see patent US11306156.
